Test results taken from patent US20120003299A1 (KYOTO UNIVERSITY, published 2012).

Experiments:
recombinant human Hsp90 [1] = biological target: T1, recombinant human Hsp90 (human, UniProt P07900 1-732); test: SPR competition: Hsp90 without peptide (0 uM, reference) over immobilized Hop TPR2A
T1 construct: The tag is placed first here only because pDEST17 is named; also called heat shock protein 90; not shown: histidine tag from E. coli expression vector pDEST17-Hsp90

recombinant human Hsp90 [2] = biological target: T1, recombinant human Hsp90; test: SPR competition: Hsp90 pre-mixed with 141.1 uM peptide, injected over immobilized Hop TPR2A
recombinant human Hsp90 [3] = biological target: T1, recombinant human Hsp90; test: SPR competition: Hsp90 pre-mixed with 282.2 uM peptide, injected over immobilized Hop TPR2A
recombinant human Hsp90 [4] = biological target: T1, recombinant human Hsp90; test: SPR competition: Hsp90 pre-mixed with 1.411 uM peptide, injected over immobilized Hop TPR2A
recombinant human Hsp90 [5] = biological target: T1, recombinant human Hsp90; test: SPR competition: Hsp90 pre-mixed with 14.11 uM peptide, injected over immobilized Hop TPR2A
recombinant human Hsp90 [6] = biological target: T1, recombinant human Hsp90; test: SPR competition: Hsp90 pre-mixed with 705.5 uM peptide, injected over immobilized Hop TPR2A

Binder: KAYARIGNSYFK [TPR peptide (KAYARIGNSYFK)]
- Binding of Hsp90 (%) (recombinant human Hsp90 [1]): 100%
- Binding of Hsp90 (%) (recombinant human Hsp90 [2]): 72.3%
- Binding of Hsp90 (%) (recombinant human Hsp90 [3]): 29.8%
- Binding of Hsp90 (%) (recombinant human Hsp90 [4]): 88.2%
- Binding of Hsp90 (%) (recombinant human Hsp90 [5]): 84.6%
- Binding of Hsp90 (%) (recombinant human Hsp90 [6]): 0%

Binder: RKFSAAIGYNKY (Control peptide) [TPR scramble peptide]
- Binding of Hsp90 (%) (recombinant human Hsp90 [1]): 100%
- Binding of Hsp90 (%) (recombinant human Hsp90 [2]): 100%
- Binding of Hsp90 (%) (recombinant human Hsp90 [3]): 90.7%
- Binding of Hsp90 (%) (recombinant human Hsp90 [4]): 100%
- Binding of Hsp90 (%) (recombinant human Hsp90 [5]): 100%
- Binding of Hsp90 (%) (recombinant human Hsp90 [6]): 88.9%
